Columns and labels:
[1] = biological target: untagged SARS-CoV-2 RBD expressed in E. coli BL21(DE3) and oxidatively refolded (RBDWT) (SARS-CoV-2) (UniProt P0DTC2); assay: BLI, RBD expressed in E. coli, 1:1 Langmuir fit
[2] = biological target: Mammalian SARS-CoV2 RBD (residues 331-524) with C-terminal 6XHis Tag (SARS-CoV-2) (UniProt P0DTC2); assay: ELISA on coated antigen, anti-human IgG-HRP
[3] = biological target: untagged SARS-CoV-2 RBD expressed in E. coli BL21(DE3) and oxidatively refolded (RBDWT) (SARS-CoV-2) (UniProt P0DTC2); assay: BLI, RBD expressed in E. coli

mAb 2B04 (antibody)
Kd [1]: 1.05 nM
minimum positive concentration [2]: < 5 µg/mL
half-life [3]: 23.7 min
